Reference: patent publication US20140357845A1 (published 2014)

Experiments:
[1] = target: H3-mini2-cl9 + 10 + 11 + 13-GCN4 (influenza A virus H3N2); assay: FACS
[2] = target: H3-mini2-cl9 + 10 + 11 + 13 (influenza A virus H3N2, UniProt Q38SQ8 18-566); assay: FACS
[3] = target: H3-mini2-cl9 + 10 + 11-GCN4 (influenza A virus H3N2); assay: FACS
[4] = target: H3-mini2-cl9 + 10 + 11 + 13-tri (influenza A virus H3N2); assay: FACS
H3-mini2-cl9 + 13 = H3-mini2-cl9 + 13 (influenza A virus H3N2, UniProt Q38SQ8 18-566); assay: FACS
[5] = target: H3-mini2-cl9 + 10 + 11-tri (influenza A virus H3N2); assay: FACS
[6] = target: HA of influenza virus A/Chick/Germany/N/49 (H10) (influenza A virus H10); assay: cell-based or functional assay
[7] = target: HA of influenza virus A/Johannesburg/33/94 (H3) (influenza A virus H3); assay: cell-based or functional assay
[8] = target: HA of influenza virus A/Hong Kong/1073/99 (H9) (influenza A virus H9); assay: cell-based or functional assay
[9] = target: HA of influenza virus A/WF/MPA 892/06 (H4) (influenza A virus H4); assay: cell-based or functional assay
[10] = target: HA of influenza virus A/Env/MPU3156/05 (H2) (influenza A virus H2); assay: cell-based or functional assay
[11] = target: HA of influenza virus A/Brisbane/10/2007 (H3) (influenza A virus H3); assay: cell-based or functional assay
[12] = target: HA of influenza virus A/Hiroshima/52/2005 (H3) (influenza A virus H3); assay: cell-based or functional assay
[13] = target: HA of influenza virus A/EW/MPD411/07 (H6) (influenza A virus H6); assay: cell-based or functional assay
[14] = target: HA of influenza virus A/EW/MPH571/08 (H8) (influenza A virus H8); assay: cell-based or functional assay
[15] = target: HA of influenza virus A/Panama/2007/1999 (H3) (influenza A virus H3); assay: cell-based or functional assay
[16] = target: HA of influenza virus A/Ck/HK/SSP176/09 (H9) (influenza A virus H9); assay: cell-based or functional assay
[17] = target: HA of influenza virus A/EW/MPF461/07 (H5) (influenza A virus H5); assay: cell-based or functional assay

B1: CR9114 (antibody, V domains shown)
VH: QVQLVQSGAEVKKPGSSVKVSCKSSGGTSNNYAISWVRQAPGQGLDWMGGISPIFGSTAYAQKFQGRVTISADIFSNTAYMELNSLTSEDTAVYFCARHGNYYYYSGMDVWGQGTTVTVSS
VL: SYVLTQPPAVSGTPGQRVTISCSGSDSNIGRRSVNWYQQFPGTAPKLLIYSNDQRPSVVPDRFSGSKSGTSASLAISGLQSEDEAEYYCAAWDDSLKGAVFGGGTQLTVL
B1: no binding (tested: 5 microgram/ml) [1]; no binding (tested: 5 microgram/ml) [2]; no binding (tested: 5 microgram/ml) [3]. B1: no binding (tested: 5 microgram/ml) [4]; no binding (tested: 5 microgram/ml) (H3-mini2-cl9 + 13); no binding (tested: 5 microgram/ml) [5]. For the same binder, the “geomean IC50, virus neutralization assay (VNA)” value (from here on “geomean IC50”) [6] was 15.7 µg/mL, the “geomean IC50” value [7] was 21.9 µg/mL and the “geomean IC50” value [8] was 4.4 µg/mL. For the same binder, the “geomean IC50” value [9] was 0.8 µg/mL, the “geomean IC50” value [10] was 8.8 µg/mL and the “geomean IC50” value [11] was 5.6 µg/mL. For the same binder, the “geomean IC50” value [12] was 12.5 µg/mL, the “geomean IC50” value [13] was 10.5 µg/mL and the “geomean IC50” value [14] was 8.8 µg/mL. For the same binder, the “geomean IC50” value [15] was 39.9 µg/mL, the “geomean IC50” value [16] was 6.3 µg/mL and the “geomean IC50” value [17] was 10.5 µg/mL.
